Where a chain is given by its changes, count along the chain named. One block for each binder: values may come before it.
Assays:
[1] = biological target: T1, recombinant human EpCAM extracellular domain (human, UniProt P16422 24-265); assay: ELISA, human EpCAM, pH 6.0
T1 construct: extracellular domain; Plate-coated antigen of the ELISAs; also called human EpCAM ECD; recombinant EpCAM antigen
T1 sequence (looked up): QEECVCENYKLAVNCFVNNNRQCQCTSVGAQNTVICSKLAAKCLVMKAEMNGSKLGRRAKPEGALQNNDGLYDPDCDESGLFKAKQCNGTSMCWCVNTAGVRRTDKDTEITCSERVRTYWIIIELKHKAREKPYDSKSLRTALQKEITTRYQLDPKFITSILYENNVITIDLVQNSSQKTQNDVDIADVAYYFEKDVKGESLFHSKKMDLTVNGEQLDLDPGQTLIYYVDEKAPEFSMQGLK
Protocol: (§1) The binding activities of the humanized conditionally active anti-EpCAM antibodies to human EpCAM were measured by ELISA, using the template antibody BAP-1-5-01-06, as a control. The EC50 values of the humanized conditionally active anti-EpCAM antibodies for binding to human EpCAM at pH 6.0 and pH 7.4 are summarized in Table 5.
(§2) The ELISA assay was performed using the following protocol: [0388] 1) Coat ELISA plates with 100 μL of 0.5 μg/mL (06_20_17 and 06_28_17 Experiments) or 1 μg/mL (07_06_17 and 07_11_17 Experiments) recombinant EpCAM antigen in carbonate-bicarbonate coating buffer [0389] 2) Cover plates with sealing film and incubate overnight at 4° C. [0390] 3) Decant plates and tap out residual liquid on a stack of paper towels [0391] […] 5) Add 200 μL of various pH incubation buffers to the wells according to the sample map.

[2] = biological target: T2, cyno EpCAM expressed on 293 cells (cynomolgus monkey); assay: FACS on 293 cells expressing cyno EpCAM, pH 6.0
T2 construct: whole, on cells; also called 293 cells expressing cyno EpCAM
T2 sequence (Q1WER1 24-314): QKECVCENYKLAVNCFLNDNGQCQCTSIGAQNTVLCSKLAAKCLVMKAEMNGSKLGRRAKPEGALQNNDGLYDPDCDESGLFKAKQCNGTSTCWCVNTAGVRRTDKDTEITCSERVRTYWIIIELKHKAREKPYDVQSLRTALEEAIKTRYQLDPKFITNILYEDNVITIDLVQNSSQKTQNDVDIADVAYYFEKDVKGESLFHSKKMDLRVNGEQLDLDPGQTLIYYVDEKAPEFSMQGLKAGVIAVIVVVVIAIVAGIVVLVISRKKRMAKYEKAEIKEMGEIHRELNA
Protocol: (§3) A similar FACS analysis was also carried out using 293 cells expressing cyno EpCAM. […] The EC50 values for binding to the 293 cells expressing cyno EpCAM by the humanized conditionally active anti-EpCAM antibodies are summarized in Table 11.

[3] = biological target: T3, human EpCAM expressed on cells (CHO, Colo205, 293) (human, UniProt P16422 24-314); assay: FACS on 293 cells expressing human EpCAM, pH 7.4
T3 construct: whole, on cells; also called CHO cells expressing human EpCAM; Colo205 cells expressing human EpCAM
T3 sequence (looked up): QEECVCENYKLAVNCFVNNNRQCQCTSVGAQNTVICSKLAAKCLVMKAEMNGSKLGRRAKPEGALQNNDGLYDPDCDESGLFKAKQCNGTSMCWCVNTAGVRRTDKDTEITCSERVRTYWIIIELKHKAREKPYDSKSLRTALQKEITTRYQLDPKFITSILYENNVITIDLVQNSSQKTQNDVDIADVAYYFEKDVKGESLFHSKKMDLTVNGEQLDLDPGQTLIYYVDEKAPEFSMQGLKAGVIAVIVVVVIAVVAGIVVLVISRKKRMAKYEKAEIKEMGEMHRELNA
Protocol: (§4) A similar FACS analysis was also carried out using 293 cells expressing human EpCAM. […] The EC50 values for binding to the 293 cells expressing human EpCAM by the humanized conditionally active anti-EpCAM antibodies are summarized in Table 10.

[4] = biological target: T3, human EpCAM expressed on cells (CHO, …); assay: FACS on Colo205 cells expressing human EpCAM, pH 6.0
Protocol: (§5) Binding activities of the humanized conditionally active anti-EpCAM antibodies to Colo205 cells expressing human EpCAM were measured by FACS at pH 6.0 and pH 7.4. […] The EC50 values for binding to the Colo205 cells expressing human EpCAM by the humanized conditionally active anti-EpCAM antibodies are summarized in Table 9.

[5] = biological target: T4, cyno EpCAM (recombinant, ELISA antigen) (cynomolgus monkey); assay: ELISA with pH titration, cyno EpCAM
T4 construct: extracellular domain; also called cynomolgus EpCAM extracellular domain
T4 sequence (Q1WER1 24-265): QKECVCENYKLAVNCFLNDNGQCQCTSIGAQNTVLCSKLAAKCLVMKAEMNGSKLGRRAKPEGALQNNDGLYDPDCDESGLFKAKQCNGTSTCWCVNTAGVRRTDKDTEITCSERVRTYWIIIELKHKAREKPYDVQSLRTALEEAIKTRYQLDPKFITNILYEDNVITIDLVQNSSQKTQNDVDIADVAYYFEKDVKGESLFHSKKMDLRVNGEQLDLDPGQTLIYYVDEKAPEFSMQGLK
Protocol: The binding activities of the humanized conditionally active anti-EpCAM antibodies to cyno EpCAM with pH titration was similarly measured by ELISA.
as §2

[6] = biological target: T1, recombinant human EpCAM extracellular …; assay: ELISA, human EpCAM, pH 7.4
Protocol: as §1, §2

[7] = biological target: T4, cyno EpCAM (recombinant, ELISA antigen); assay: ELISA, cyno EpCAM, pH 6.0
Protocol: (§6) The binding activities of the humanized conditionally active anti-EpCAM antibodies to cyno EpCAM were similarly measured. The EC50 for binding to the cyno EpCAM at pH 6.0 and pH 7.4 for the humanized conditionally active anti-EpCAM antibodies are summarized in Table 7.
as §2

[8] = biological target: T1, recombinant human EpCAM extracellular …; assay: ELISA with pH titration, human EpCAM
Protocol: The binding activities of the humanized conditionally active anti-EpCAM antibodies to human EpCAM with pH titration were also measured by ELISA.
as §2

[9] = biological target: T3, human EpCAM expressed on cells (CHO, …); assay: FACS on Colo205 cells expressing human EpCAM, pH 7.4
Protocol: as §5

[10] = biological target: T4, cyno EpCAM (recombinant, ELISA antigen); assay: ELISA, cyno EpCAM, pH 7.4
Protocol: as §6, §2

[11] = biological target: T3, human EpCAM expressed on cells (CHO, …); assay: FACS on 293 cells expressing human EpCAM, pH 6.0
Protocol: as §4

[12] = biological target: T2, cyno EpCAM expressed on 293 cells; assay: FACS on 293 cells expressing cyno EpCAM, pH 7.4
Protocol: as §3

[13] = biological target: T3, human EpCAM expressed on cells (CHO, …); assay: cell-based or functional assay
[14] = biological target: T1, recombinant human EpCAM extracellular …; assay: ELISA on human EpCAM, pH range 5.0 to 7.4

- EC50 [1]: 0.0191 µg/mL
- EC50 [2]: 1.42 µg/mL
- EC50 [3]: 0.159 µg/mL
- EC50 [4]: 0.497 µg/mL
- pH inflection point [5]: 6.35 pH
- EC50 [6]: 0.0487 µg/mL
- EC50 [7]: 0.084 µg/mL
- pH inflection point [8]: 6.82 pH
- EC50 [9]: 0.67 µg/mL
- EC50 [10]: 0.105 µg/mL
- EC50 [11]: 0.118 µg/mL
- EC50 [12]: 4.46 µg/mL
B1: BAP-105.4-03-02 (antibody, V domains shown)
VH: EVQLVQSGAEVKKPGESLRISCKGSGYTFTSYWMHWIRQSPSRGLEWLGYIRPSTGYTEYNQKFKDRVTISADKSISTAYLQWSSLKASDTAMYYCGRGDNWVGFANWGQGTLVTVSS
VL: EIVMTQSPATLSVSPGERATLSCSASSSISYMHWYQQKPGKAPKLLIYSTSNLASGIPPRFSGSGYGTDFTLTINNIESEDAAYYFCHQWSTYETFGQGTKVEIK
notes: Humanized

B2: BAP-105-06-01 conjugated to MMAE (antibody, V domains shown)
VH: EVQLVQSGAEVKKPGATVKISCKVSGYTFTSYWMHWIRQPPGKGLEWIGYIRPSTGYTEYNQKFKDRFTISRDNSKNTLYLQMNSLRAEDTAVYYCGRGDNWVGFANWGQGTLVTVSS
VL: EIVLTQSPDFQSVTPKEKVTITCSASSSISYMHWYQQKPGKAPKLLIYSTSKLASGVPDRFSGSGSGTDFTLKISRVEAEDVGVYYCHQWSTYETFGQGTKVEIK
modifications: antibody conjugated to MMAE; chain and residues of attachment not stated
- IC50 for the in vitro killing of Colo205 cells, pH6.0 [13]: 101 ng/mL
- IC50 for the in vitro killing of Colo205 cells, pH7.4 [13]: 550 ng/mL
- ratio (pH7.4/pH6.0) of the IC50 for the in vitro killing of Colo205 cells [13]: 5.47

B3: BAP-105-06-02 conjugated to MMAE (antibody, V domains shown)
VH: B2 VH
VL: B2 VL with K52S
modifications: antibody conjugated to MMAE; chain and residues of attachment not stated
- IC50 for the in vitro killing of Colo205 cells, pH6.0 [13]: 146 ng/mL
- IC50 for the in vitro killing of Colo205 cells, pH7.4 [13]: 708 ng/mL
- ratio (pH7.4/pH6.0) of the IC50 for the in vitro killing of Colo205 cells [13]: 4.86

- EC50 [1]: 0.0154 µg/mL
- EC50 [2]: 2.42 µg/mL
- EC50 [3]: 0.238 µg/mL
- EC50 [4]: 0.321 µg/mL
- pH inflection point [5]: 6.17 pH
- EC50 [6]: 114 µg/mL
- EC50 [7]: 0.674 µg/mL
- pH inflection point [8]: 6.6 pH
- EC50 [9]: 0.652 µg/mL
- EC50 [10]: 0.0359 µg/mL
- EC50 [11]: 0.215 µg/mL
- EC50 [12]: 14.1 µg/mL
B4: BAP-105.4-02-01 (antibody, V domains shown)
VH: B2 VH with I37V, P40A, K43Q, I48M
VL: EIVMTQSPATLSVSPGERATLSCSASSSISYMHWYQQKPGKAPKLLIYSTSNLASGVPSRFSGSGSGTEFTLTISSLQPDDFATYYCHQWSTYETFGQGTKVEIK
notes: Humanized

- EC50 [1]: 0.0147 µg/mL
- EC50 [2]: 1.26 µg/mL
- EC50 [3]: 0.174 µg/mL
- EC50 [4]: 0.273 µg/mL
- pH inflection point [5]: 6.27 pH
- EC50 [6]: 0.066 µg/mL
- EC50 [7]: 0.194 µg/mL
- pH inflection point [8]: 6.87 pH
- EC50 [9]: 0.397 µg/mL
- EC50 [10]: 0.208 µg/mL
- EC50 [11]: 0.116 µg/mL
- EC50 [12]: 6.36 µg/mL
B5: BAP-105.4-01-02 (antibody, V domains shown)
VH: B1 VH
VL: B2 VL with K52N
notes: Humanized

- binding result [14]: binds
B6: BAP-105-01-02 (antibody, V domains shown)
VH: QVQLQQSGAELAKPGASVKVSCKASGYTFTSYWMHWVKQRPGQGLEWIGDIRPSTGYTEYNQKFKDKATLTADKSSSTAYMQLSSLTFEDSAVYYCGRGDNWVGFANWGQGTLVTVSA
VL: QIVLTQSPAIMSASLGEEIALTCSASSSISYMHWYQQKSGTSPKLLIYSTSNLASGVPSRFSGSGSGTFYSLTISSVEAEDAADYFCHQWSTYHTFGSGTKLEIK

- binding result [14]: binds
B7: BAP-105-01-04 (antibody, V domains shown)
VH: B6 VH with D50Y
VL: B6 VL with A54H

- binding result [14]: binds
B8: BAP-105-01-05 (antibody, V domains shown)
VH: B6 VH with D50Y
VL: B6 VL with H88E
